Data on two molecules can be found in PMC8602292, “Acyl carrier protein promotes MukBEF action in Escherichia coli chromosome organization-segregation” (Nature Communications, 2021).

The test deals with T1, MukB (wild type, MukB-His) (Escherichia coli, UniProt P22523 1-1486).
T1 construct: MukB, the SMC protein of Escherichia coli MukBEF; wild type; The end of the tag is read from the printed name 'MukB-His'; The same construct was used with co-purified AcpP or depleted of AcpP by an extended salt gradient on heparin; also called WT MukB; AcpP-depleted MukB; source: E. coli C3013I (NEB), pET vector, purified (TALON, HiTrap Heparin, Superdex 200); not shown: His tag, C-terminal, kept
T1 sequence (looked up): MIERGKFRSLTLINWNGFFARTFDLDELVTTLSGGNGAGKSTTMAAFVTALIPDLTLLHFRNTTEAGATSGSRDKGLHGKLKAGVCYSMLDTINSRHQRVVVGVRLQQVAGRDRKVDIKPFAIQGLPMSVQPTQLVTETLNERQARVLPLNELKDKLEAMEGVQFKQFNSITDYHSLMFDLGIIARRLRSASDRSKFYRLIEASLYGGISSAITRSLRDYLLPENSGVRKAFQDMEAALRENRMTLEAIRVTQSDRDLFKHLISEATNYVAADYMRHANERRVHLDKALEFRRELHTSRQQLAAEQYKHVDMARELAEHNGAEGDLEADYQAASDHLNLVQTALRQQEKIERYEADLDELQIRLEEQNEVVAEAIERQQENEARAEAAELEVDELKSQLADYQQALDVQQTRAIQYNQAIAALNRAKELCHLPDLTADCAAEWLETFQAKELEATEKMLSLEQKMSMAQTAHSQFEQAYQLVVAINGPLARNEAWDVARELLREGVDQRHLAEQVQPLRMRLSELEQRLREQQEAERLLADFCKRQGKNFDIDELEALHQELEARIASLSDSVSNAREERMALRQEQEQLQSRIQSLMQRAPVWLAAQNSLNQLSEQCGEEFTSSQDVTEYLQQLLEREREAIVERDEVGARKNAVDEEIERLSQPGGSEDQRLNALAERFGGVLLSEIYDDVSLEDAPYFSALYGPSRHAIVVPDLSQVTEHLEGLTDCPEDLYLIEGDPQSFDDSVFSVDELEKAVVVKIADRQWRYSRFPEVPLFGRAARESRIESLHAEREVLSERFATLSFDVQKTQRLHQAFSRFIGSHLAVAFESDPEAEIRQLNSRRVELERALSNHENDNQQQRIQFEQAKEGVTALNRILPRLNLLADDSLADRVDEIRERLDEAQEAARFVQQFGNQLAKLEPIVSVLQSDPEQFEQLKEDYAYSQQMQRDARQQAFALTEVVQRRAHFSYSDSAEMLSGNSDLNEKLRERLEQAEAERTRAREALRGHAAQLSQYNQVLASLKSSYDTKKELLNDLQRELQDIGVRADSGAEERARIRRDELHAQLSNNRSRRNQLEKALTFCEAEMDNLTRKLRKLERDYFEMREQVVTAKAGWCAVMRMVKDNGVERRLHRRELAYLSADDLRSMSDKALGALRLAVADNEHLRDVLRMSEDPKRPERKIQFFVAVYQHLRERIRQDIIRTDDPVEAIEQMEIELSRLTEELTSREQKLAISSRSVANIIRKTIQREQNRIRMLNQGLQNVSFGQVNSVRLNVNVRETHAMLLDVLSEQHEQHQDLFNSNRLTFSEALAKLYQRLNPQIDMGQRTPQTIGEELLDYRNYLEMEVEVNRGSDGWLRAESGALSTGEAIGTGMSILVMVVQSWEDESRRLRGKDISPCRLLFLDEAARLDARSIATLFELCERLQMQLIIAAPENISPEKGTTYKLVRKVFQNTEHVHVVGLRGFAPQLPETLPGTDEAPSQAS
The experiment in a line: native MS; mixtures of MukB, MukE, MukF and AcpP at various concentrations of MukB; 200 mM ammonium acetate pH 8.0. The settings on record: both partners purified.

B1: MukF (His-MukF) (natural protein, Escherichia coli, UniProt P60293 1-440, looked up)
chain: MSEFSQTVPELVAWARKNDFSISLPVDRLSFLLAVATLNGERLDGEMSEGELVDAFRHVSDAFEQTSETIGVRANNAINDMVRQRLLNRFTSEQAEGNAIYRLTPLGIGITDYYIRQREFSTLRLSMQLSIVAGELKRAADAAEEGGDEFHWHRNVYAPLKYSVAEIFDSIDLTQRLMDEQQQQVKDDIAQLLNKDWRAAISSCELLLSETSGTLRELQDTLEAAGDKLQANLLRIQDATMTHDDLHFVDRLVFDLQSKLDRIISWGQQSIDLWIGYDRHVHKFIRTAIDMDKNRVFAQRLRQSVQTYFDEPWALTYANADRLLDMRDEEMALRDEEVTGELPEDLEYEEFNEIREQLAAIIEEQLAVYKTRQVPLDLGLVVREYLSQYPRARHFDVARIVIDQAVRLGVAQADFTGLPAKWQPINDYGAKVQAHVIDKY
notes: MukF, the kleisin of Escherichia coli MukBEF; The end of the tag is read from the printed name 'His-MukF'; also called kleisin MukF; source: E. coli C3013I (NEB), pET vector, purified (TALON, HiTrap DEAE FF, Superdex 200)
With B1, the binding result is “binds”.

B2: MukE (MukE-His) (natural protein, Escherichia coli, UniProt P22524 1-234, looked up)
chain: MSSTNIEQVMPVKLAQALANPLFPALDSALRSGRHIGLDELDNHAFLMDFQEYLEEFYARYNVELIRAPEGFFYLRPRSTTLIPRSVLSELDMMVGKILCYLYLSPERLANEGIFTQQELYDELLTLADEAKLLKLVNNRSTGSDVDRQKLQEKVRSSLNRLRRLGMVWFMGHDSSKFRITESVFRFGADVRAGDDPREAQRRLIRDGEAMPIENHLQLNDETEENQPDSGEEE
notes: MukE, the KITE protein of Escherichia coli MukBEF; The end of the tag is read from the printed name 'MukE-His'; also called KITE protein MukE; source: E. coli C3013I (NEB), pET vector, purified (TALON, HiTrap DEAE FF, Superdex 200)
As for B2, the binding result is on record as “binds”.
